In patent US11453711B2, “Fusion proteins of GLP-1 and GDF15 and conjugates thereof” (BEIJING QL BIOPHARMACEUTICAL CO., LTD., priority 2019, dated 2022):
Positions count from the first letter of the chain named.

B1: MLC090: fusion polypeptide SEQ ID NO: 379 conjugated with Moiety C at 39C of Linker (conjugate)
chain: HGEGTFTSDVSSYLEEQAAKEFIAWLVRGGGGAQPGAQPGAQPGAQPGAQPGAQPGAQPGAQPGQEPGQCPGQEPGAQPGQEPGAQPGQEPGAQPGQEPGAQPGQEPGAQPARQGDHCPLGPGRCCRLHTVRASLEDLGWADWVLSPREVQVTMCIGACPSQFRAANLHAQIKTSLHRLKPDTVPAPCCVPASYNPMVLIQKTDTGVSLQTYDDLLAKDCHCI
modifications: Moiety C conjugated at linker Cys39
B2: MLC003: unconjugated GLP-1/GDF15 fusion protein (protein)
chain: HGEGTFTSDVSSYLEEQAAKEFIAWLVRGGGGQEPGQEPGQEPGQEPGQEPGQEPGQEPGQEPGAQPGAQPARQGDHCPLGPGRCCRLHTVRASLEDLGWADWVLSPREVQVTMCIGACPSQFRAANLHAQIKTSLHRLRPDTVPAPCCVPASYNPMVLIQRTDTGVSLQTYDDLLARDCHCI
B3: MLC019: unconjugated GLP-1/GDF15 fusion protein, linker of at least 80 residues (protein)
chain: HGEGTFTSDVSSYLEEQAAKEFIAWLVRGGGGQEPGAQPGQEPGAQPGQEPGAQPGQEPGAQPGQEPGAQPGQEPGAQPGAQPGAQPGAQPGAQPGAQPGAQPGAQPGAQPARQGDHCPLGPGRCCRLHTVRASLEDLGWADWVLSPREVQVTMCIGACPSQFRAANLHAQIKTSLHRLRPDTVPAPCCVPASYNPMVLIQRTDTGVSLQTYDDLLARDCHCI
B4: MLC013: fusion polypeptide SEQ ID NO: 260 conjugated with Moiety A at 1K of Linker (conjugate)
chain: B3 chain with K20R, G32K
modifications: Moiety A conjugated at linker K1

Assays:
[1] = Body weight and food intake in C57BL/6 mice, fusion protein conjugates, 30 nmol/kg daily 10 days; format: in vivo
Experimental: (§1) 10 week old male C57BL/6 mice were injected everyday subcutaneously with 15 nmol/kg of the fusion protein conjugates (i.e., MLC002, MLC 004, MLC 005, MLC 006, MLC 007, MLC 008, and MLC 009) for 14 days. Food intake and body weight were measured daily and five animals were used for each treatment group. Body weight (BW) was monitored for each individual animal, but food intake for each group animals was measured together. Day 1 and Day 14 are first day and last day of molecule dosage. % BW loss=100*(BW on Day n-BW on Day 1)/(BW on Day 1). Cumulative food intake on Day n represents sum of food intake from Day 1 to Day n. Data are indicated as mean values and standard error (SEM) or pooled values. Statistical analysis was performed by One-way ANOVA. Body weight reduction on Day 11 is calculated by −1*(% BW loss−% BW loss of vehicle group); Cumulative food intake reduction is calculated by −100*(cumulative food intake-cumulative food intake of vehicle)/cumulative food intake of vehicle.
Data were calculated in the same way as described above. Day 1 and Day 10 are first day and last day of the administration.
MLC014 was used as a negative control. MLC014 has an amino acid sequence of SEQ ID NO: 261, which contains a linker fused to the N terminal of GDF15, with a CRM conjugated to the lysine residue in the linker. Tirzepatide was also used as a control.

[2] = Efficacy in db/db mice: body weight, food intake, glucose, biomarkers, daily sc 14 days; format: in vivo
Experimental: FIGS. 4A-4D show In vivo efficacy in db/db mice. To evaluate the body weight, food intake and glucose effects of the fusion proteins, 8 week old male db/db mice were dosed everyday subcutaneously with 30 nmol/kg protein for 14 days. […] Compared to Vehicle control: ***, p<0.001. Data are expressed as mean values and standard error (SEM) for FIGS. 4A, 4B and 4D. n=5 for each treatment group. For FIG. 4C, a pooled food intake was measured for each treatment group.
FIGS. 5A-5F show In vivo efficacy in db/db mice. To evaluate the body weight, food intake and glucose effects of the fusion proteins, 8 week old male db/db mice were dosed everyday subcutaneously with different concentrations of proteins for 14 days. FIGS. 5A and 5B show body weight loss upon protein treatments from Day1 to Day15. […] Compared to Vehicle control: ***, p<0.001; **, p<0.01; *, p<0.05; ns, non-statistically significant; FIGS. 5D and 5E show cumulative food intake with protein treatments from Day1 to Day15. […] Compared to Vehicle control: ***, p<0.001**, p<0.01; *, p<0.05; ns, non-statistically significant. Data are expressed as mean values and standard error (SEM) for FIGS. 5A, 5B, 5C and 5F. n=5 for each treatment group. For FIGS. 5D and 5E, a pooled food intake was measured for each treatment group.
FIGS. 8A-8I show In vivo efficacy in db/db mice. To evaluate the body weight, food intake and glucose effects of the fusion proteins, 8 week old male db/db mice were dosed everyday subcutaneously with different concentrations of proteins for 14 days. […] FIGS. 8D-8F show body weight loss upon dose titrations of fusion protein conjugates. […] Data are expressed as mean values and standard error (SEM) for FIGS. 8A and 8C-I. n=5 for each treatment group. For FIG. 8B, a pooled food intake was measured for each treatment group.
Selected fusion protein conjugates are assessed in disease animal models (DIO mice, db/db mice, etc.) to determine body weight, food intake, glucose efficacy with dose responses. Some biomarkers are also measured, including fasting insulin, plasma triglyceride, cholesterol, liver triglyceride, and inflammatory biomarkers (ALT, AST and CRP).
8 week old male db/db mice were injected everyday subcutaneously with designated proteins for 14 days. Age matched lean mice were used as control. Food intake and body weight were measured daily and five animals were used for each treatment group. Fasting glucose were tested on designated days as shown in each figure. Body weight was monitored for each individual animal, but food intake for each group animals was measured together. Day 1 and Day 14 are first day and last day of molecule dosage. % BW loss=100*(BW on Day n-BW on Day 1)/(BW on Day 1). Cumulative food intake on Day n represents sum of food intake from Day 1 to Day n. Terminal blood was collected and EDTA-2K plasma was prepared and frozen at −80° C. for biomarker measurement. Liver was also collected and frozen in liquid nitrogen and store at −80° C. Data are indicated as mean values and standard error (SEM) or pooled values. Statistical analysis was performed by One-way ANOVA.

[3] = PK study in non-human primates, single sc dose 5 nmol/kg, plasma ELISA; details: monkey, single sc dose 5 nmol/kg; for Cmax: read-out: Cmax (nmol/L)
[4] = Body weight and food intake in C57BL/6 mice, unconjugated fusion proteins, 30 nmol/kg daily 10 days; format: in vivo; details: for Body weight reduction at 30 nmol/kg (% reduction compared to vehicle)(Day11) / Cumulative food intake reduction at 30 nmol/kg (% reduction compared to vehicle)(Day11): C57 mice, 30 nmol/kg daily, Day11, unconjugated fusion proteins
Experimental: as §1
As described in the above method, a daily dose of 30 nmol/kg of the unconjugated fusion proteins (i.e., MLC100, MLC023, MLC022, MLC020, MLC003, MLC124, MLC021, MLC019, MLC102) were administered to C57BL/6 for 10 days. Data were calculated as above method. Day 1 and Day 10 are first day and last day of administration.

[5] = Pharmacokinetic measurement in mouse, single sc dose 30 nmol/kg, plasma ELISA; details: for Cmax: read-out: Cmax (nmol/L), single sc dose 30 nmol/kg; for exposure (Cmax and AUC) / half-life (T1/2): single sc 30 nmol/kg, in words; for AUC0-24 h / Terminal t1/2 / Tmax: single sc dose 30 nmol/kg
Experimental: Each fusion protein was injected subcutaneously into C57BL/6 mice (n=3/group) once and plasma samples were collected at designed time points and analyzed by ELISA method. Plasma concentrations are indicated as mean values and standard error (SEM).
6-8 week old male C57BL/6 mice were administrated in a single subcutaneous dose of 30 nmol/kg of the fusion protein conjugates or unconjugated fusion proteins (i.e., MLC002, MLC004, MLC005, MLC006, MLC007, MLC008, MLC009, MLC013, MLC017, MLC047, MLC074, MLC075, MLC089, MLC093, MLC003 and MLC019) (n=3/group). Plasma samples were collected pre-dose (−5 min), 0.5 hr, 1 hr, 2 hr, 4 hr, 6 hr, 8 hr, 12 hr, 24 hr, 48 hr and 72 hr after the injection. The concentrations of the fusion protein conjugates in the plasma were measured by an ELISA assay which has immunoreactivity towards both GDF15 and intact N-terminal of GLP-1. Based on the graph showing plasma concentration of each protein versus time after subcutaneous injection, the pharmacokinetic parameters (including Tmax, Cmax, T1/2, AUC) were calculated by WinNonlin software.

[6] = 30 nmol/kg, FIG. 8A-C, versus Semaglutide, Tirzepatide and MLC014
[7] = 30 nmol/kg daily 14 days, FIG. 4, versus Semaglutide
[8] = 30 nmol/kg, FIG. 5A-E, versus Semaglutide, Tirzepatide and MLC014

Row | Molecule | Body weight reduction at 30 nmol/kg (% reduction compared to vehicle)(Day11) [1] | Cumulative food intake reduction at 30 nmol/kg (% reduction compared to vehicle)(Day11) [1] | AUC0-96 h [3] | Terminal t1/2 [3] | Tmax [3] | Cmax [3] | Body weight reduction at 30 nmol/kg (% reduction compared to vehicle)(Day11) [4] | Cumulative food intake reduction at 30 nmol/kg (% reduction compared to vehicle)(Day11) [4] | Cmax [5] | exposure (Cmax and AUC) [5] | half-life (T1/2) [5] | AUC0-24 h [5] | Terminal t1/2 [5] | Tmax [5] | further results
1 | B1 | 24.5% | 44.4% | 1.987 µM·h | 40 h | 7 h | 36 nmol/L |  |  |  |  |  |  |  |  | body weight loss [2, 6]: more body weight loss, food intake suppression and glycemic control; food intake suppression [2, 6]: more body weight loss, food intake suppression and glycemic control; glycemic control [2, 6]: more body weight loss, food intake suppression and glycemic control; efficacy ([2]; FIG. 8 study): better efficacy than Semaglutide and GDF15 derivative (MLC014)
2 | B2 |  |  |  |  |  |  | 15.5% | 25.3% | 24.7 nmol/L | much shorter half-lives and exposures than MLC002 and MLC004 | much shorter half-lives and exposures than MLC002 and MLC004 | 0.1074 µM·h | 3.5 h | 1.0 h | 
3 | B3 |  |  |  |  |  |  | 23.0% | 48.6% | 23.7 nmol/L | much shorter half-lives and exposures than MLC002 and MLC004 | much shorter half-lives and exposures than MLC002 and MLC004 | 0.2639 µM·h | 4.8 h | 4.0 h | in vivo efficacy (food intake and body weight reduction) ([4]; unconjugated fusion proteins, 30 nmol/kg daily 10 days, by linker length): the most significant results among all the tested fusion proteins
4 | B4 | 21.4% | 45.2% | 1.435 µM·h | 26 h | 7 h | 41.3 nmol/L |  |  | 38.5 nmol/L |  |  | 0.5035 µM·h | 8.9 h | 3.3 h | body weight loss [2, 7]: sustainable and much better effect; food intake suppression [2, 7]: sustainable and much better effect; glucose lowering effect ([2]; 30 nmol/kg daily 14 days, FIG. 4D): comparable glucose lowering effect to Semaglutide; body weight loss [2, 8]: sustainable and much better effect; food intake suppression [2, 8]: sustainable and much better effect; efficacy ([2]; FIG. 5 study): better efficacy than Semaglutide and GDF15 derivative (MLC014)
